One may read the Kd as the free concentration of one partner at which half of the binding sites on the other are occupied at equilibrium, for simple one-to-one binding.

Experimental findings from paper PMC2602770 are described below.

Series [1] has as its target T1, GST-AtGRP8-RQ (Arabidopsis thaliana, UniProt Q03251 1-169, R47Q).
T1 sequence: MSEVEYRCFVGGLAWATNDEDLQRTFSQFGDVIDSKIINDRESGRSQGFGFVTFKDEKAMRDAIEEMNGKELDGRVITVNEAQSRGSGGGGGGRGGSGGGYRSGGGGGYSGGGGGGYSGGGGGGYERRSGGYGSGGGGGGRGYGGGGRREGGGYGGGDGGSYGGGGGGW
Briefly: EMSA. For orientation: In EMSA bound probe runs differently from free probe, usually more slowly.

For series [2], the target named is T2, GST-AtGRP8 (WT) (Arabidopsis thaliana, UniProt Q03251 1-169).
T2 sequence: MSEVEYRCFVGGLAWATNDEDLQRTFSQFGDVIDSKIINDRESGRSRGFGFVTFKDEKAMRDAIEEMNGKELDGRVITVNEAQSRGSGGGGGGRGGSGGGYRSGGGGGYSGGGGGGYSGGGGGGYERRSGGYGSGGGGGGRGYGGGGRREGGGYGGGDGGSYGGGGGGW
Briefly: EMSA.

Series [3] concerns the target T2, GST-AtGRP8 (WT). As to the kind of experiment: EMSA. This is another data set of the same source.
The target in series [4] is T2, GST-AtGRP8 (WT). Briefly: competition.

B1: 7-intron_WT (ssRNA)
RNA: GUUCAGUUUUGUUGGAUUGUUUUGCUGAUCUG
B1: the Kd in series [1] stood at 3.59 µM; in series [2], 426 nM.

B2: 8-UTR_938 (ssRNA)
RNA: CGUUUGGUUUACUUUUUUGAUGAAACA
For the molecule B2, the binding signal in series [3] was ~10 fold lower affinity than 8-UTR_WT.

B3: 8-UTR_WT (ssRNA)
RNA: GUUUUUGGUUUAGAUUUGGUUUUGUGU
As to B3, the Kd in series [1] came to 1.31 µM; in series [2], 205 nM.

B4: 8-intron_WT (ssRNA)
RNA: CUUCCACGAUUGUUUUUGCUGAUGUGU
As to B4, the results for the Kd in series [1] and in series [2] were 22.9 µM and 1640 nM, respectively.

B5: 7-intron_G6mut (ssRNA)
RNA: GUUCAAUUUUAUUAAAUUAUUUUACUGAUCUG
With B5, the binding result in series [4] is reported as “no binding”.

B6: 7-UTR_WT (ssRNA)
RNA: AUUUUGUUCUGGUUCUGCUUUAGAUUUGAUCU
With B6, the equilibrium dissociation constant (Kd) in series [1] came to 3.22 µM; in series [2], 318 nM.
